These results are taken from publication PMC10293810, “Multiple RNA- and DNA-binding proteins exhibit direct transfer of polynucleotides with implications for target-site search”.

Changes are numbered by the printed parent chain.

One series concerns the target T1, FBF-2 RNA-binding domain (Caenorhabditis elegans, UniProt Q09312 164-575).
T1 sequence: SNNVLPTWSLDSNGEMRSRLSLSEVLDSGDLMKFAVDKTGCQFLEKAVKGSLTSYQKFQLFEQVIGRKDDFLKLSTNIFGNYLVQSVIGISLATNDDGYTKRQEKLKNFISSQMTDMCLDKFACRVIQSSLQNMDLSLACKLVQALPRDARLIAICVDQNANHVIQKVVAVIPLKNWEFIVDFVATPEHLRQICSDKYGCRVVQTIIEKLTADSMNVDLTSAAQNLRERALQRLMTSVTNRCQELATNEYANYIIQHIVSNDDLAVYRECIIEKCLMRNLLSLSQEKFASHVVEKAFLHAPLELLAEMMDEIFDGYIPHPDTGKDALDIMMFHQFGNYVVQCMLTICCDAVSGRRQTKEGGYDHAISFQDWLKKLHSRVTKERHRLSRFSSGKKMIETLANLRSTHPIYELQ
The experiment in a line: fluorescence polarization; 25 C; apparent Kd; FP with 5 nM ligand at 25 C (some FPCD at 4 C); buffer for MS2-CP (BB6): 100 mM Tris pH 7.5, 10 mM MgCl2, 80 mM KCl, 0.1 mg/mL BSA; other buffers not in material. The following applies: protein: recombinant; label: 5' 6-FAM. For orientation: Fluorescence polarisation rises when a labelled molecule tumbles more slowly, as on binding a larger partner.

Series [1] addresses T2, MS2 coat protein V75E,A81G (MS2 bacteriophage, UniProt P03612 2-130, V76E;A82G). The experiment in a line: competition; displaces [F]RNA2MS2; FP with 5 nM ligand at 25 C (some FPCD at 4 C); buffer for MS2-CP (BB6): 100 mM Tris pH 7.5, 10 mM MgCl2, 80 mM KCl, 0.1 mg/mL BSA; other buffers not in material. The following applies: protein: recombinant; tags: HisMBP fusion with 3C protease site; chain copies: 2; hairpin.

The target in series [2] is hnRNP-U RNA-binding domain (human, UniProt Q00839 673-825). Kind of series: fluorescence polarization; 25 C; apparent Kd; FP with 5 nM ligand at 25 C (some FPCD at 4 C); buffer for MS2-CP (BB6): 100 mM Tris pH 7.5, 10 mM MgCl2, 80 mM KCl, 0.1 mg/mL BSA; other buffers not in material. The conditions noted are these: protein: recombinant; tags: N-terminal His-MBP fusion; label: fluorophore, 3' by name; G-quadruplex.

In series [3] the target is T2, MS2 coat protein V75E,A81G. Kind of series: fluorescence polarization; 25 C; apparent Kd, ligand 5 nM >= Kd so true Kd may be lower; FP with 5 nM ligand at 25 C (some FPCD at 4 C); buffer for MS2-CP (BB6): 100 mM Tris pH 7.5, 10 mM MgCl2, 80 mM KCl, 0.1 mg/mL BSA; other buffers not in material. The conditions noted are these: protein: recombinant; tags: HisMBP fusion with 3C protease site; chain copies: 2; label: fluorophore; hairpin.

A further series concerns the target T3, TREX1 R174A,K175A (murine, UniProt Q91XB0 1-242, R174A;K175A).
T3 sequence: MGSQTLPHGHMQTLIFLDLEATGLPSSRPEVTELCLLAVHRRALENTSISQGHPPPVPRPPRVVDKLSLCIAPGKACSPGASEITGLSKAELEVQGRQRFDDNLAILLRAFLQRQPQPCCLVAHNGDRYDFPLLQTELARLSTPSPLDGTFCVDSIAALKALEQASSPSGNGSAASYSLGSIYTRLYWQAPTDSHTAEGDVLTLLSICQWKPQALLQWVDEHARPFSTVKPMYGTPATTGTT
Kind of series: fluorescence polarization; 25 C; apparent Kd; FP with 5 nM ligand at 25 C (some FPCD at 4 C); buffer for MS2-CP (BB6): 100 mM Tris pH 7.5, 10 mM MgCl2, 80 mM KCl, 0.1 mg/mL BSA; other buffers not in material. The following applies: protein: recombinant; tags: MBP fusion, cleaved by protease (similar to WT); chain copies: 2; label: 5' fluorophore (FP).

The target in a further series is T4, TREX1 catalytic core (murine, UniProt Q91XB0 1-242).
T4 sequence: T3 sequence with A174R, A175K
Described as above. The conditions noted are these: protein: recombinant; tags: MBP fusion, cleaved by protease; chain copies: 2; label: 5' fluorophore (FP).

Chain of hnRNP-U RNA-binding domain (Q00839 673-825): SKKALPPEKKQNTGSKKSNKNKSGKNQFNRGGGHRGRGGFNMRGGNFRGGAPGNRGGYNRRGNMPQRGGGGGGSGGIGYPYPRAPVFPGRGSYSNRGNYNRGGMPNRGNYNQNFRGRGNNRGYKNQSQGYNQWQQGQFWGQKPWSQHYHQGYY

As for AACAUGUGCCAUA (ssRNA) [[F]RNAPUF], the Kd with FBF-2 RNA-binding domain worked out at 50 ± 9.2 nM.

Consider GGGACUGAGGAUCACCCAGUCUAU (structured_RNA) [RNA1MS2], for which the binding result in series [1] is on record as “binds”.

In the case of GGGAAGGGAAGGGAAGGGAA (structured_RNA) [r(G3A2)4[F]], the Kd in series [2] worked out at 15 ± 4.8 nM.

With GGACAUGAGGAUCACCCAUGU (structured_RNA) [[F]RNA2MS2], the Kd in series [3] worked out at 2.9 ± 0.62 nM.

As for GACTG (ssDNA) [[F]d(N)5], the Kd with TREX1 R174A,K175A came to 46 ± 16 nM; with TREX1 catalytic core, 8.9 ± 3.8 nM.
